Results reported in patent publication US20210230570.
Residue numbers refer to the chain shown, from its start. Names and notes keep the numbering of the source.

B1: FIXa-Y155F/K247N/N249S/R318Y/R338E/T343R (protein)
chain 1: YNSGKLEEFVQGNLERECMEEKCSFEEAREVFENTERTTEFWKQYVDGDQCESNPCLNGGSCKDDINSYECWCPFGFEGKNCELDVTCNIKNGRCEQFCKNSADNKVVCSCTEGYRLAENQKSCEPAVPFPCGRVSVSQTSKLTR
chain 2: VVGGEDAKPGQFPWQVVLNGKVDAFCGGSIVNEKWIVTAAHCVETGVKITVVAGEHNIEETEHTEQNRSVIRIIPHHNYNAAINKYNHDIALLELDEPLVLNSYVTPICIADKEYTNIFLKFGSGYVSGWGRVFHKGYSALVLQYLRVPLVDRATCLESTKFRIYNNMFCAGFHEGGRDSCQGDSGGPHVTEVEGTSFLTGIISWGEECAMKGKYGIYTKVSRYVNWIKEKTKLT
B2: FIXa-K247N/N249S/R318Y/R338E/T343R (protein)
chain 1: B1 chain 1
chain 2: B1 chain 2
B3: FIXa-Y155F/K247N/N249S/T343R/E410N (protein)
chain 1: B1 chain 1
chain 2: B1 chain 2 with Y138R, E158R, E230N
B4: FIXa-Y155F/K247N/N249S/R403E/E410N (protein)
chain 1: B1 chain 1
chain 2: B1 chain 2 with Y138R, E158R, R163T, R223E, E230N
B5: FIXa-Y155F/R338E/T343R/E410N (protein)
chain 1: B1 chain 1
chain 2: B1 chain 2 with N67K, S69N, Y138R, E230N
B6: FIXa-Y155F/R318Y/T343R/E410N (protein)
chain 1: B1 chain 1
chain 2: B1 chain 2 with N67K, S69N, E158R, E230N
B7: FIXa-R318Y/T343R/E410N (protein)
chain 1: B1 chain 1
chain 2: B1 chain 2 with N67K, S69N, E158R, E230N
B8: FIXa-K228N/R318Y/R338E/T343R/R403E/E410N (protein)
chain 1: B1 chain 1
chain 2: B1 chain 2 with K48N, N67K, S69N, R223E, E230N
B9: FIXa-K228N/K247N/N249S/R318Y/R338E/T343R/R403E (protein)
chain 1: B1 chain 1
chain 2: B1 chain 2 with K48N, R223E
B10: FIXa-K228N/K247N/N249S/R318Y/R338E/T343R/E410N (protein)
chain 1: B1 chain 1
chain 2: B1 chain 2 with K48N, E230N
B11: FIXa-K228N/K247N/N249S/R318Y/T343R/R403E/E410N (protein)
chain 1: B1 chain 1
chain 2: B1 chain 2 with K48N, E158R, R223E, E230N
B12: FIXa-Y155F/R318Y/R338E/T343R/R403E/E410N (protein)
chain 1: B1 chain 1
chain 2: B1 chain 2 with N67K, S69N, R223E, E230N
B13: FIXa-D104N/K106S/R318Y/R338E/T343R/R403E/E410N (protein)
chain 1: B1 chain 1 with D104N, K106S
chain 2: B1 chain 2 with N67K, S69N, R223E, E230N
B14: FIXa-Y155F/K247N/N249S/R338E/R403E/E410N (protein)
chain 1: B1 chain 1
chain 2: B1 chain 2 with Y138R, R163T, R223E, E230N
B15: FIXa-K247N/N249S/R338E/R403E/E410N (protein)
chain 1: B1 chain 1
chain 2: B1 chain 2 with Y138R, R163T, R223E, E230N
B16: FIXa-R318Y/R338E/T343R/R403E (protein)
chain 1: B1 chain 1
chain 2: B1 chain 2 with N67K, S69N, R223E
B17: FIXa-Y155F/R318Y/R338E/T343R/R403E (protein)
chain 1: B1 chain 1
chain 2: B1 chain 2 with N67K, S69N, R223E
B18: FIXa-Y155F/R318Y/R338E/T343R/E410N (protein)
chain 1: B1 chain 1
chain 2: B1 chain 2 with N67K, S69N, E230N
B19: FIXa-Y155F/R318Y/T343R/R403E/E410N (protein)
chain 1: B1 chain 1
chain 2: B1 chain 2 with N67K, S69N, E158R, R223E, E230N
B20: FIXa-R338E/T343R/R403E/E410N (protein)
chain 1: B1 chain 1
chain 2: B1 chain 2 with N67K, S69N, Y138R, R223E, E230N
B21: FIXa-Y155F/R338E/T343R/R403E/E410N (protein)
chain 1: B1 chain 1
chain 2: B1 chain 2 with N67K, S69N, Y138R, R223E, E230N
B22: FIXa-Y155F/K247N/N249S/R318Y/R338E/T343R/R403E/E410N (protein)
chain 1: B1 chain 1
chain 2: B1 chain 2 with R223E, E230N
B23: FIXa-K228N/I251S/R318Y/R338E/R403E/E410N (protein)
chain 1: B1 chain 1
chain 2: B1 chain 2 with K48N, N67K, S69N, I71S, R163T, R223E, E230N
B24: FIXa-Y155F/K228N/I251S/R318Y/R338E/R403E/E410N (protein)
chain 1: B1 chain 1
chain 2: B1 chain 2 with K48N, N67K, S69N, I71S, R163T, R223E, E230N
B25: FIXa-N260S/R318Y/R338E/T343R/R403E/E410N (protein)
chain 1: B1 chain 1
chain 2: B1 chain 2 with N67K, S69N, N80S, R223E, E230N
B26: FIXa-Y155F/N260S/R318Y/R338E/T343R/R403E/E410N (protein)
chain 1: B1 chain 1
chain 2: B1 chain 2 with N67K, S69N, N80S, R223E, E230N
B27: FIXa-K228N/K247N/N249S/R318Y/R338E/T343R/R403E/E410N (protein)
chain 1: B1 chain 1
chain 2: B1 chain 2 with K48N, R223E, E230N
B28: FIXa-Y155F/K228N/K247N/N249S/R318Y/R338E/T343R/R403E/E410N (protein)
chain 1: B1 chain 1
chain 2: B1 chain 2 with K48N, R223E, E230N
B29: FIXa-Y155F/R338E/T343R/R403E (protein)
chain 1: B1 chain 1
chain 2: B1 chain 2 with N67K, S69N, Y138R, R223E
B30: FIXa-R338E/T343R/R403E (protein)
chain 1: B1 chain 1
chain 2: B1 chain 2 with N67K, S69N, Y138R, R223E
B31: FIXa-Y155F/R338E/T343R/R403E/E410S (protein)
chain 1: B1 chain 1
chain 2: B1 chain 2 with N67K, S69N, Y138R, R223E, E230S
B32: FIXa-Y155F/N260S/R338E/T343R/R403E (protein)
chain 1: B1 chain 1
chain 2: B1 chain 2 with N67K, S69N, N80S, Y138R, R223E
B33: FIXa-Y155F/I251S/R338E/T343R/R403E (protein)
chain 1: B1 chain 1
chain 2: B1 chain 2 with N67K, S69N, I71S, Y138R, R223E
B34: FIXa-R318Y/R338E/T343R/R403E/E410S (protein)
chain 1: B1 chain 1
chain 2: B1 chain 2 with N67K, S69N, R223E, E230S
B35: FIXa-Y155F/K247N/N249S/T343R/R403E (protein)
chain 1: B1 chain 1
chain 2: B1 chain 2 with Y138R, E158R, R223E
B36: FIXa-Y155F/K247N/N249S/R318Y/R338E/T343R/R403E (protein)
chain 1: B1 chain 1
chain 2: B1 chain 2 with R223E
B37: FIXa-K247N/N249S/R318Y/R338E/T343R/R403E (protein)
chain 1: B1 chain 1
chain 2: B1 chain 2 with R223E
B38: FIXa-Y155F/K247N/N249S/R338E/T343R/R403E/E410N (protein)
chain 1: B1 chain 1
chain 2: B1 chain 2 with Y138R, R223E, E230N
B39: FIXa-K247N/N249S/R338E/T343R/R403E/E410N (protein)
chain 1: B1 chain 1
chain 2: B1 chain 2 with Y138R, R223E, E230N
B40: FIXa-Y155F/K247N/N249S/R318Y/R338E (protein)
chain 1: B1 chain 1
chain 2: B1 chain 2 with R163T
B41: FIXa-Y155F/K247N/N249S/R318Y/T343R (protein)
chain 1: B1 chain 1
chain 2: B1 chain 2 with E158R

Each protein was assayed against Factor X (FX), P00742.
Factor X (FX), P00742, sequence (P00742 whole entry, looked up): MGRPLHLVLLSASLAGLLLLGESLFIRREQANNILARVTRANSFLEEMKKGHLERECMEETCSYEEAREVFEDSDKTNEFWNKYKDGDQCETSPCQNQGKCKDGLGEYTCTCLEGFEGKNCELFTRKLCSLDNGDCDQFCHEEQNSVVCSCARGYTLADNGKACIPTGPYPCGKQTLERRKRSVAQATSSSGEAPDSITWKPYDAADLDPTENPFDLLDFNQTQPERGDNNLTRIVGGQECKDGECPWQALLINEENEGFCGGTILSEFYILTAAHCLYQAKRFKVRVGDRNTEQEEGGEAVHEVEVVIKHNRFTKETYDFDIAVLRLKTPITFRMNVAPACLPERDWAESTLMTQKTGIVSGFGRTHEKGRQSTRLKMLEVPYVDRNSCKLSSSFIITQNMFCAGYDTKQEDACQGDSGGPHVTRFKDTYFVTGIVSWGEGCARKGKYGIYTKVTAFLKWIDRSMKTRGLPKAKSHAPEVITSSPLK

B1 and B2 are within 1.5-fold of each other in kcat: 8.5 s⁻¹ for the first, 8 s⁻¹ for the second.

Compared with B3, B4 is 2.9-fold lower in kcat: 7.9 s⁻¹ for the first, 2.7 s⁻¹ for the second.

B5 and B26 are within 1.5-fold of each other in kcat: 6 s⁻¹ for the first, 5.8 s⁻¹ for the second.

B27 and B28 are within 1.5-fold of each other in kcat: 9.9 s⁻¹ for the first, 9.4 s⁻¹ for the second.

B29 and B30 are within 1.5-fold of each other in kcat: 5.2 s⁻¹ for the first, 6.9 s⁻¹ for the second.

B31 and B32 are within 1.5-fold of each other in kcat: 6.8 s⁻¹ for the first, 6.4 s⁻¹ for the second.

B33 and B34 are within 1.5-fold of each other in kcat: 5.9 s⁻¹ for the first, 7.6 s⁻¹ for the second.

Going from B35 to B36, the kcat rises from 4.7 s⁻¹ to 10.6 s⁻¹ (2.3-fold).

B37 and B38 are within 1.5-fold of each other in kcat: 9.2 s⁻¹ for the first, 9.8 s⁻¹ for the second.

B39 and B40 are within 1.5-fold of each other in kcat: 10.8 s⁻¹ for the first, 7.5 s⁻¹ for the second.

B41 was tested, and the kcat was 10.3 s⁻¹.

B1 and B2 are within 1.5-fold of each other in kcat/KM: 3.6e+08 M⁻¹ s⁻¹ for the first, 3.9e+08 M⁻¹ s⁻¹ for the second.

Compared with B3, B4 is 12-fold lower in kcat/KM: 2.8e+08 M⁻¹ s⁻¹ for the first, 2.4e+07 M⁻¹ s⁻¹ for the second.

First: B5
Second: B6
The kcat/KM of the first is 2.3-fold higher: 3.5e+08 M⁻¹ s⁻¹ for the first, 1.5e+08 M⁻¹ s⁻¹ for the second.

Going from B7 to B8, the kcat/KM rises from 6.2e+07 M⁻¹ s⁻¹ to 2.7e+08 M⁻¹ s⁻¹ (4.4-fold).

First: B9
Second: B10
The kcat/KM of the first is 2.2-fold higher: 2.9e+08 M⁻¹ s⁻¹ for the first, 1.3e+08 M⁻¹ s⁻¹ for the second.

In the case of B11, the kcat/KM is reported as 7.1e+07 M⁻¹ s⁻¹.

First: B6
Second: B7
The kcat (s^-1) for activation of FX by FIXa in the Xase complex (FVIIIa, PC/PS vesicles, Ca2+), fluorogenic Spectrafluor FXa read-out of the first is 1.6-fold higher: 5 s⁻¹ for the first, 3.2 s⁻¹ for the second.

B8 and B9 are within 1.5-fold of each other in kcat (s^-1) for activation of FX by FIXa in the Xase complex (FVIIIa, PC/PS vesicles, Ca2+), fluorogenic Spectrafluor FXa read-out: 10.5 s⁻¹ for the first, 10.9 s⁻¹ for the second.

First: B10
Second: B11
The kcat (s^-1) for activation of FX by FIXa in the Xase complex (FVIIIa, PC/PS vesicles, Ca2+), fluorogenic Spectrafluor FXa read-out of the first is 1.7-fold lower: 4.7 s⁻¹ for the first, 8.1 s⁻¹ for the second.

B12 and B13 are within 1.5-fold of each other in KM: 0.0272 µM for the first, 0.0266 µM for the second.

Compared with B14, B15 is 1.9-fold lower in KM: 0.0487 µM for the first, 0.025 µM for the second.

B16 and B17 are within 1.5-fold of each other in KM: 0.0443 µM for the first, 0.034 µM for the second.

B18 and B19 are within 1.5-fold of each other in KM: 0.0256 µM for the first, 0.034 µM for the second.

B20 and B21 are within 1.5-fold of each other in KM: 0.0347 µM for the first, 0.0259 µM for the second.

B22 and B23 are within 1.5-fold of each other in KM: 0.0257 µM for the first, 0.0364 µM for the second.

B24 and B25 are within 1.5-fold of each other in KM: 0.0393 µM for the first, 0.0321 µM for the second.

B12 and B13 are within 1.5-fold of each other in kcat of FX activation by FIXa in the Xase complex (FVIIIa, PC/PS vesicles, Ca2+): 7.8 s⁻¹ for the first, 5.7 s⁻¹ for the second.

B14 and B15 are within 1.5-fold of each other in kcat of FX activation by FIXa in the Xase complex (FVIIIa, PC/PS vesicles, Ca2+): 5 s⁻¹ for the first, 4.8 s⁻¹ for the second.

B16 and B17 are within 1.5-fold of each other in kcat of FX activation by FIXa in the Xase complex (FVIIIa, PC/PS vesicles, Ca2+): 6.7 s⁻¹ for the first, 8.2 s⁻¹ for the second.

B18 and B19 are within 1.5-fold of each other in kcat of FX activation by FIXa in the Xase complex (FVIIIa, PC/PS vesicles, Ca2+): 9.2 s⁻¹ for the first, 8.8 s⁻¹ for the second.

First: B20
Second: B21
The kcat of FX activation by FIXa in the Xase complex (FVIIIa, PC/PS vesicles, Ca2+) of the first is 1.7-fold higher: 9.8 s⁻¹ for the first, 5.7 s⁻¹ for the second.

B22 and B23 are within 1.5-fold of each other in kcat of FX activation by FIXa in the Xase complex (FVIIIa, PC/PS vesicles, Ca2+): 9.7 s⁻¹ for the first, 7.5 s⁻¹ for the second.

Going from B24 to B25, the kcat of FX activation by FIXa in the Xase complex (FVIIIa, PC/PS vesicles, Ca2+) rises from 5.3 s⁻¹ to 8.9 s⁻¹ (1.7-fold).
